Experiment: yeast display, Sf9 membrane polyspecificity reagent, FACS + sequencing; frameworks hold sequencing errors
Summary of the method: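 In a synthetic yeast display library (Saccharomyces cerevisiae BJ5465), nanobody expression was induced with galactose for 36–48 hours. FACS gates were set low and high (top ~1%) using anti-HA fluorescence for expression and streptavidin fluorescence for binding of the Sf9 membrane reagent. Each polyreactivity label is drawn from the gate of origin.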
For “QVQLVESGGGLVQAGGSLRLSCAASGSNFAVYAMGWYRQAPGKERELVATIRWNGGSTYYADSVKGRFTISRDNAKNTVYLQMNSLKQEDTAVYYCAKEYSTYVSKKSAYRYYYWGQGTQVTVSS”, the “polyreactivity (PSR sort gate)” value was “high polyreactivity”. For “QVQLVESGGGLVQAGGSLRLSCAASGSNFDFYAMGWYRQAPGKERELVAAISSSGTSTYYADSVKGRFTISRDNAKNTVYLQMNSLKPEDTAVYYCAAVYSRSGYTWREYGYWGQGTQVTVSS”, the “polyreactivity (PSR sort gate)” value was “low polyreactivity”. In the case of “QVQLVESGGGLVQAGGSLRLSCAASGSNFDIYGMGWYRQAPGKERELVASISGGAGSTNYADSVKGRFTISRDNAKNTVYLQMNSLKPEDTAVYYCAAEVYVPDSFQHKFDVEYEYWGQGTQVTVSS”, the “polyreactivity (PSR sort gate)” value is reported as “low polyreactivity”. In the case of “QVQLVESGGGLVQAGGSLRLSCAASGSNFDTYAMGRYRQAPGKERELVAAITRRAGSTYYADSVKGRFRISRDNAKNTVYLQMNSLKPEDTSVYYCAADFRYPDIYGGYDYWGQGTQVTVSS”, the “polyreactivity (PSR sort gate)” value is reported as “low polyreactivity”. For “QVQLVESGGGLVQAGGSLRLSCAASGSNFENYAMGWYRQAPGKERELVAAISSNGGSTYYADSVKGRFTLSRDKAKNTVYLQKNSLKPEDTAVYYCNKGRYYRQIYDYWGQGTQVTVSS”, the “polyreactivity (PSR sort gate)” value was “high polyreactivity”. With “QVQLVESGGGLVQAGGSLRLSCAASGSNFFSYAMGWYREAPGKERELVAAIDYSGGGTYYADSVKGRFTISRDNAKNTVYLQMNSLKPEDTAVYYCNSDTEVWADTFISYRALNYWGQGTQVTVSS” the “polyreactivity (PSR sort gate)” value was “low polyreactivity”. With “QVQLVESGGGLVQAGGSLRLSCAASGSNFGKYAMGWYRPAPGKERELVATITRRGGSTYYADSVKGRFTISRDNAKNTVYLQMNSLKPEDSAVYYCAKRSNGYVDYGYWGQGTQVTVSS” the “polyreactivity (PSR sort gate)” value was “high polyreactivity”. In the case of “QVQLVESGGGLVQAGGSLRLSCAASGSNFHPNGMGRYRQAPRTERELVAAIRRSGGSTYYADSVKGRFTISRDNAKNTVYLQMISLKAEDTAVYYCAAKHYYYSRYVRYDPPPGYYWGQGTQVTVSS”, the “polyreactivity (PSR sort gate)” value is reported as “high polyreactivity”. With “QVQLVESGGGLVQAGGSLRLSCAASGSNFKTYVMGWSRQAPGKERELVAAITSSGGRTYYADSVKGRFTISRDNAKNSVYLQMNSLKPEDTAVYYCNTAPRWVGRNDYWGQGTQVTVSS” the “polyreactivity (PSR sort gate)” value was “high polyreactivity”. For “QVQLVESGGGLVQAGGSLRLSCAASGSNFLKNAMGWYRQAPGKERELVAAITSGGSTYYADSVKGRFTISRDNAKNTVYLQMNSLKPEDTAVYYCADETSPSWYTWVTYDYWGQGTQVTVSS”, the “polyreactivity (PSR sort gate)” value was “high polyreactivity”. With “QVQLVESGGGLVQAGGSLRLSCAASGSNFNRYAMGWYRQAPGKERELVAAISRSGGRTYYADSVKGRFTISRDNAKNTVYLQMNSLKPEDTAVYYCAAGGRWFYIDDDWGQGTQVTVSS” the “polyreactivity (PSR sort gate)” value was “high polyreactivity”. For “QVQLVESGGGLVQAGGSLRLSCAASGSNFNYYVMGGYRQAPGKERELVAAISRSGTSTYYADSVKGRFTISRDNAKNTVYLQMNRLKPEDSSVYYCAARVSHKYRTYYYWGQGTQVTVSS”, the “polyreactivity (PSR sort gate)” value was “high polyreactivity”. With “QVQLVESGGGLVQAGGSLRLSCAASGSNFPVYAMGWYRQAPGKEREFVAAISYSGGGTYYADSVKGRFTISRDNAKNTVYLQMNSLKPEDTAVYYCAADVSGWEYAYWGQGTQVTVSS” the “polyreactivity (PSR sort gate)” value was “low polyreactivity”. In the case of “QVQLVESGGGLVQAGGSLRLSCAASGSNFQYYGMGWYRQAPGKERELVASISRSGGSTYYADSVKGRFTISRDNAKNTVYLQMNSLKPEDTAVYYCNAKEAIRRTHLTTTYRDGYWGQGTQVTVSS”, the “polyreactivity (PSR sort gate)” value is reported as “low polyreactivity”. In the case of “QVQLVESGGGLVQAGGSLRLSCAASGSNFSFYAMGWYRQAPGKERELVAAISYSGGSTYYADSVKGRFTISRDNAKNTVYLQINSLKPEDTAVYYCNSDIYRHHGWVPGGYRGQGTQVTVSS”, the “polyreactivity (PSR sort gate)” value is reported as “low polyreactivity”. In the case of “QVQLVESGGGLVQAGGSLRLSCAASGSNFTANAMGLYRQAPGKEREMVADISTGGSTKYADSVKGRFTISRDNAKNTVYLEMNSLKPEDTAVYYCAARSRWARGSAIRGFWGQGTQVTVSS”, the “polyreactivity (PSR sort gate)” value is reported as “high polyreactivity”. For “QVQLVESGGGLVQAGGSLRLSCAASGSNFVVYAMGWYRQAPGKERELVAAISWGIGSTYYADSVKGRFTISRDNAKNTVYLHMNSLKPQDTAVYYCAADTDIVLYDYWGQGTQVTVSS”, the “polyreactivity (PSR sort gate)” value was “low polyreactivity”. With “QVQLVESGGGLVQAGGSLRLSCAASGSNFYGYTMGWYRQAPGKERELVAAISWSGGSTYYADSVKGRFTISRDNAKNTVYLQMNSLKPEDTAVYYCAARWGYSRRGYRGYDYWGQGTQVTVSS” the “polyreactivity (PSR sort gate)” value was “high polyreactivity”. For “QVQLVESGGGLVQAGGSLRLSCAASGSNFYPYAMGWYRQAPGKEREFVAAITRSGGSTSYADSVKGRFTISRDNAKNTVYLQMNSLKPVDTAVDYCAAGYWYPDYDGFDYWGQGTQVTGSS”, the “polyreactivity (PSR sort gate)” value was “low polyreactivity”. In the case of “QVQLVESGGGLVQAGGSLRLSCAASGSNIKYYAMGWYRQAPGKERELVAAISWRGGRTYADSVKGRFTISRDNAKNTVYLQMNSLKPEDTAVYYCATAQTSITGRVYYWGQGTQVTVSS”, the “polyreactivity (PSR sort gate)” value is reported as “high polyreactivity”. In the case of “QVQLVESGGGLVQAGGSLRLSCAASGSNITYYAMGWYRQAPGKERELVAAINLSGDITYYADSVKGRFTISRDNAKNTVYLQMNSLKPEDTAVYYCAAESASSRPYFNSIHRRDSWGQGTQVTVSS”, the “polyreactivity (PSR sort gate)” value is reported as “low polyreactivity”. With “QVQLVESGGGLVQAGGSLRLSCAASGSPFKRYAMGWYRQAPGKERELVAAISSRGSSTYYADSVKGRFTISRDNAKNTVYLQMNSLKPEDTAVYYCAADRYTFWTVHSDYWGQGTQVTVSS” the “polyreactivity (PSR sort gate)” value was “high polyreactivity”. For “QVQLVESGGGLVQAGGSLRLSCAASGSPFTRYTMGWYRHAPGKERELVASITRTGSTNYADSVKGRFTISRDNAKNTLYFQMNSLKPEDTAVYYCAAGRYYSYRFSFGYWGQGTQVTVSS”, the “polyreactivity (PSR sort gate)” value was “high polyreactivity”. For “QVQLVESGGGLVQAGGSLRLSCAASGSPFVDNAMGWYRQAPGKEMELVAAIRDGSGGSTRYADSVKGRFTISRDNAKNTVYLQMHSLKPEVTAVYYCAADGYITVNYLRYDYWGQGTQVTVSS”, the “polyreactivity (PSR sort gate)” value was “low polyreactivity”. With “QVQLVESGGGLVQAGGSLRLSCAASGSPYQQYGMGWYRQAPGKERELVAAITFSDGNTYYADSVTGRFTISRDNAKNTVYLQMNSLKPEDTAVYYCNAGYSYGVSYAEGGYWGQGTQVTVSS” the “polyreactivity (PSR sort gate)” value was “low polyreactivity”. With “QVQLVESGGGLVQAGGSLRLSCAASGSSFAGNAMGWYRQAPGKERELVAAIDSSTGSTYYADSVKGRFTISRDNAKNTVYLQMNSLKPEDTAVYYCNKTSFLVKLDYWGQGTQVTLSS” the “polyreactivity (PSR sort gate)” value was “low polyreactivity”. With “QVQLVESGGGLVQAGGSLRLSCAASGSSFGGYAMGWYRQAPGKERELVARITDRGGSTDYADSVKGRFTISRDNAKNTVYLQKNSLKPEDTAGSYCAKRGDRYEKRPRDYWGQGTQVTVSS” the “polyreactivity (PSR sort gate)” value was “low polyreactivity”. With “QVQLVESGGGLVQAGGSLRLSCAASGSSFGTYAMGWYRQAPGKERELVAAISSSVGSTYYADSVKGRFTISRDNATNTVYLQMNSLKPEDTAVYYCAVEQEDFWYPYLYDYWGQGTQVTVSS” the “polyreactivity (PSR sort gate)” value was “high polyreactivity”. In the case of “QVQLVESGGGLVQAGGSLRLSCAASGSSFKRYAMGWYRQAPGKERELVAAINWRGGRTYYADSVKGRFTISRDNAKNTVYLQMNSLKPEDTAVYYCNVVSNSYYYQHYYWGQGTQVTVSS”, the “polyreactivity (PSR sort gate)” value is reported as “high polyreactivity”. For “QVQLVESGGGLVQAGGSLRLSCAASGSSFTPNALGWYRQAPGKERELVAAISSSSDRTYYADSVKGRFTISRDNAKNTVYLQMNSLKPEDTAVYYCNARTEYASSRYYYWGQGTQVTVSS”, the “polyreactivity (PSR sort gate)” value was “high polyreactivity”. In the case of “QVQLVESGGGLVQAGGSLRLSCAASGSSFVSYTMGWYRQAPGKERELVAAISYNGARTYYADSVKGRFTISRDNAKNTVYLQMNSLKPEDTAVYYCARRYYSQYDYWGQGTQVTVSS”, the “polyreactivity (PSR sort gate)” value is reported as “high polyreactivity”. For “QVQLVESGGGLVQAGGSLRLSCAASGSSFYYYTMGWYRQAPGKEMELVAAITYSGGSTRYADSVKGRFTISRDNAKNTVYLQMNSLKPEDTAVYYCAAELTEWTNGFDYWGQGTQVTVSS”, the “polyreactivity (PSR sort gate)” value was “high polyreactivity”. In the case of “QVQLVESGGGLVQAGGSLRLSCAASGSSKLMLWDGIDRRLGKKGSWLPLFVLVVLRNYSDSVKGRFTISRDNAKNTVYLQMNSLKPEDTAVYYCAATPIGSGGWGDYWGQGTQVTVSS”, the “polyreactivity (PSR sort gate)” value is reported as “low polyreactivity”. For “QVQLVESGGGLVQAGGSLRLSCAASGSSLNLNAMGWYRQAPGKERELVAAIRWGGGSTYYADSVKGRFTISRDNAKNTDYLQMNSLKPEDTAVYYCAKAYHLGLGYRFDYWGQGTQVTVSS”, the “polyreactivity (PSR sort gate)” value was “high polyreactivity”. For “QVQLVESGGGLVQAGGSLRLSCAASGSSLWYNTMGWYRQAPGKERELVATISGSGANTYYADSVKGRFTISRDNAKNTDYLQMNSLKPEDTAGYYCAAVYRRWGYSSEYDYWGQGTQVTVSS”, the “polyreactivity (PSR sort gate)” value was “high polyreactivity”. With “QVQLVESGGGLVQAGGSLRLSCAASGSSRYAMGWYTPAPGKERELVAVITLSGGITYADSVKGRFTISRDNAKNTVYLQMKSLKPEDTAVYYCNADYGDWPTGGDYWGQGTQVTVSS” the “polyreactivity (PSR sort gate)” value was “low polyreactivity”. In the case of “QVQLVESGGGLVQAGGSLRLSCAASGSTCAANAMGWYRQAPGKERELVAGISESVDRTYADSVKGRFTISRDNAKNTVYLQMNSLKPEDTAVYYCKVGANVYLLYFPSRGGVYDYGYWGQGTQVTVSS”, the “polyreactivity (PSR sort gate)” value is reported as “low polyreactivity”. With “QVQLVESGGGLVQAGGSLRLSCAASGSTCSVNAMGWYRQAPGKERELVAAITYSGGSTYYADSVKGRFTISRDNAKNTVYLQMNSLKPEDTAVYYCNRDTRYYWKRYGYWGQGTQVTVSS” the “polyreactivity (PSR sort gate)” value was “high polyreactivity”. With “QVQLVESGGGLVQAGGSLRLSCAASGSTDNNAMGWYRQAPGKERELVAAIRFRSGSTYYADSVNGRFTISRDNAKNTVYLQMNSLKPEDTAVYYCAAPGSPYGYWGQGTQVTVSS” the “polyreactivity (PSR sort gate)” value was “high polyreactivity”. In the case of “QVQLVESGGGLVQAGGSLRLSCAASGSTFAAYAKGWYRQAPGKERELVAAISRSGGTTYYADSVKGRFTISRDNAKNTVYLQMNSLKPEDTAVYYCAAEQWYDNYLEYDYWGQGTQVTVSS”, the “polyreactivity (PSR sort gate)” value is reported as “high polyreactivity”. For “QVQLVESGGGLVQAGGSLRLSCAASGSTFACNGMGWYRQAPGKERELVAGIDVTGGSTYYADSVKGRFTISRDNAKNTDYLQMNSMKPEDTAVYYCNARYVYHSSFAGFDYWGQGTQVTVSS”, the “polyreactivity (PSR sort gate)” value was “low polyreactivity”. With “QVQLVESGGGLVQAGGSLRLSCAASGSTFADYTMGWYRQAPGKERELSTSYADSVKGRFTISRDNAKNTVYLQMNSLKPEDTAVYYCAAETFYDYGGYDYWGQGTQVTVSS” the “polyreactivity (PSR sort gate)” value was “low polyreactivity”. In the case of “QVQLVESGGGLVQAGGSLRLSCAASGSTFAEYAMGLYRQAPGKERELVAAISRRGGSTYYADSVKGRFTFSRDNAKYSVYLQMNSLKPEDTAVYYCATDGYTPYRWLWWLMDYWGQGTQVTVSS”, the “polyreactivity (PSR sort gate)” value is reported as “high polyreactivity”.

— the nanobody polyreactivity screen of Harvey et al. (2022)
